{"source": "patent US20250376539A1", "about": "(KIRA PHARMACEUTICALS SUZHOU, published 2025)", "binders": {"B1": {"name": "3.2 H2-10 parental (antibody, V domains shown)", "VH": "EVQLLESGGGLVQPGGSLRLSCAASGFTFRHYAMSWVRQAPGKGLEWVSLISGSGASTHYADSVKGRFTISRDNSENMLYLQMNSLRAEDTAVYYCAKDSLAVAGSEYFQHWGQGTLVTVSS", "VL": "SYVLTQAPSVSVAPGQTARITCGGNYFGGKSVHWYQQRPGQAPVLVVYDDSDRPSGIPERFSGSKSGNTATLAISRVEAGDEAAYYCQVYDTSSDHWVFGGGTKLTVL", "notes": "Histidine mutant of 3.2"}, "B2": {"name": "3.2 H2-10 × L2-1 (antibody, V domains shown)", "VH": "B1 VH", "VL": "B1 VL with D49H", "notes": "Histidine mutant of 3.2"}, "B3": {"name": "3.2 H2-10 × L3-4 (antibody, V domains shown)", "VH": "B1 VH", "VL": "B1 VL with D91H", "notes": "Histidine mutant of 3.2"}, "B4": {"name": "3.2 H2-10 × L3-7 (antibody, V domains shown)", "VH": "B1 VH", "VL": "B1 VL with S94H", "notes": "Histidine mutant of 3.2"}, "B5": {"name": "3.2 H2-10 × L1-7 (antibody, V domains shown)", "VH": "B1 VH", "VL": "B1 VL with G29H", "notes": "Histidine mutant of 3.2"}, "B6": {"name": "3.2 H2-10 × L1-8 (antibody, V domains shown)", "VH": "B1 VH", "VL": "B1 VL with K30H", "notes": "Histidine mutant of 3.2"}, "B7": {"name": "3.2 H2-10 × L2-7 (antibody, V domains shown)", "VH": "B1 VH", "VL": "B1 VL with S55H", "notes": "Histidine mutant of 3.2"}, "B8": {"name": "3.2 H2-10 × L2-5 (antibody, V domains shown)", "VH": "B1 VH", "VL": "B1 VL with R53H", "notes": "Histidine mutant of 3.2"}, "B9": {"name": "3.2 H2-10 × L2-6 (antibody, V domains shown)", "VH": "B1 VH", "VL": "B1 VL with P54H", "notes": "Histidine mutant of 3.2"}, "B10": {"name": "3.2 H2-10 × L2-3 (antibody, V domains shown)", "VH": "B1 VH", "VL": "B1 VL with S51H", "notes": "Histidine mutant of 3.2"}, "B11": {"name": "3.2 H2-10 × L3-5 (antibody, V domains shown)", "VH": "B1 VH", "VL": "B1 VL with T92H", "notes": "Histidine mutant of 3.2"}, "B12": {"name": "3.2 H2-10 × L3-11 (antibody, V domains shown)", "VH": "B1 VH", "VL": "B1 VL with V98H", "notes": "Histidine mutant of 3.2"}}, "key": {"[1]": {"target": "T1, recombinant human complement C2 (NP_000054.2), C-terminal 6His-tag, made in house (CHO cell expression) (human, UniProt P06681 21-752)", "T1 construct": "a linker before the tag is not described; also called human C2; Human C2", "T1 sequence": "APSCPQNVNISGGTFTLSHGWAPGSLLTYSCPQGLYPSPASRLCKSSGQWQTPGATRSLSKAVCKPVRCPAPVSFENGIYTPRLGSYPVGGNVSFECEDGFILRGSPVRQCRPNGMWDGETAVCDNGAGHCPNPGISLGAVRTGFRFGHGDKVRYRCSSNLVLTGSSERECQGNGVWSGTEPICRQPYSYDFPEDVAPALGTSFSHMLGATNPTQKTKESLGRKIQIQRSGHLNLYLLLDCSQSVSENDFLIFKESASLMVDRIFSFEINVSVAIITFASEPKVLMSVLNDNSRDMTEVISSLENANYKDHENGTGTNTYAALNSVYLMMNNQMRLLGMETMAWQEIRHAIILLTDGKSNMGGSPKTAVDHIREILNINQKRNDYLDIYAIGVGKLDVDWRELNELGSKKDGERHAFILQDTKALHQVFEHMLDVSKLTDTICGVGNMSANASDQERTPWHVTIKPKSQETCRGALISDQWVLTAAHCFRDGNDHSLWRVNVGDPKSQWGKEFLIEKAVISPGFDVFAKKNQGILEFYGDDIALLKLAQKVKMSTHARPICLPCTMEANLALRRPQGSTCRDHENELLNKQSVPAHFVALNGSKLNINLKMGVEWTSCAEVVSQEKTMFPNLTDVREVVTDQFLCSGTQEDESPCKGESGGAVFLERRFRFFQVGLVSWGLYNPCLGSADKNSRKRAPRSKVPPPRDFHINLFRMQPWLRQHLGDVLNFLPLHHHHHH", "test": "BLI (Gator), antibody on probe; 600 s association at pH 7.4, 600 s dissociation at pH 5.8", "protocol": "(§1) The histidine mutant constructs in Table 4 were tested for their pH-dependent dissociation from human C2. Probe-immobilized anti-C2 antibodies were incubated with C2 at pH 7.4 for 600s, followed by a 600s dissociation period in K Buffer at pH 7.4 or pH 5.8. The data were processed and analyzed by the Gator evaluation software."}, "[2]": {"target": "T1, recombinant human complement C2 …", "test": "BLI (Gator), antibody on probe; 600 s association at pH 7.4, 600 s dissociation at pH 7.4", "protocol": "as §1"}, "[3]": {"target": "T1, recombinant human complement C2 …", "test": "BLI (Gator); ratio of dissociation at pH 5.8 to pH 7.4", "protocol": "as §1"}}, "note": "Changes are numbered by the printed parent chain."}
{"binder": "B1", "values": [{"measurement": "Dissociation (%) pH 5.8", "setting": "[1]", "value": 51.3, "unit": "%"}, {"measurement": "Dissociation (%) pH 7.4", "setting": "[2]", "value": 7.74, "unit": "%"}, {"measurement": "Fold dissociation pH 5.8/pH 7.4", "setting": "[3]", "value": 6.6, "unit": "fold"}]}
{"binder": "B2", "values": [{"measurement": "Dissociation (%) pH 5.8", "setting": "[1]", "value": 81.3, "unit": "%"}, {"measurement": "Dissociation (%) pH 7.4", "setting": "[2]", "value": 13.9, "unit": "%"}, {"measurement": "Fold dissociation pH 5.8/pH 7.4", "setting": "[3]", "value": 5.8, "unit": "fold"}]}
{"binder": "B3", "values": [{"measurement": "Dissociation (%) pH 5.8", "setting": "[1]", "value": 82.8, "unit": "%"}, {"measurement": "Dissociation (%) pH 7.4", "setting": "[2]", "value": 13.3, "unit": "%"}, {"measurement": "Fold dissociation pH 5.8/pH 7.4", "setting": "[3]", "value": 6.2, "unit": "fold"}]}
{"binder": "B4", "values": [{"measurement": "Dissociation (%) pH 5.8", "setting": "[1]", "value": 60, "unit": "%"}, {"measurement": "Dissociation (%) pH 7.4", "setting": "[2]", "value": 7, "unit": "%"}, {"measurement": "Fold dissociation pH 5.8/pH 7.4", "setting": "[3]", "value": 8.6, "unit": "fold"}]}
{"binder": "B5", "values": [{"measurement": "Dissociation (%) pH 5.8", "setting": "[1]", "value": 52, "unit": "%"}, {"measurement": "Dissociation (%) pH 7.4", "setting": "[2]", "value": 4.05, "unit": "%"}, {"measurement": "Fold dissociation pH 5.8/pH 7.4", "setting": "[3]", "value": 12.8, "unit": "fold"}]}
{"binder": "B6", "values": [{"measurement": "Dissociation (%) pH 5.8", "setting": "[1]", "value": 51.8, "unit": "%"}, {"measurement": "Dissociation (%) pH 7.4", "setting": "[2]", "value": 5, "unit": "%"}, {"measurement": "Fold dissociation pH 5.8/pH 7.4", "setting": "[3]", "value": 10.4, "unit": "fold"}]}
{"binder": "B7", "values": [{"measurement": "Dissociation (%) pH 5.8", "setting": "[1]", "value": 52.7, "unit": "%"}, {"measurement": "Dissociation (%) pH 7.4", "setting": "[2]", "value": 5.39, "unit": "%"}, {"measurement": "Fold dissociation pH 5.8/pH 7.4", "setting": "[3]", "value": 9.8, "unit": "fold"}]}
{"binder": "B8", "values": [{"measurement": "Dissociation (%) pH 5.8", "setting": "[1]", "value": 51.6, "unit": "%"}, {"measurement": "Dissociation (%) pH 7.4", "setting": "[2]", "value": 5.33, "unit": "%"}, {"measurement": "Fold dissociation pH 5.8/pH 7.4", "setting": "[3]", "value": 9.7, "unit": "fold"}]}
{"binder": "B9", "values": [{"measurement": "Dissociation (%) pH 5.8", "setting": "[1]", "value": 52.6, "unit": "%"}, {"measurement": "Dissociation (%) pH 7.4", "setting": "[2]", "value": 5.97, "unit": "%"}, {"measurement": "Fold dissociation pH 5.8/pH 7.4", "setting": "[3]", "value": 8.8, "unit": "fold"}]}
{"binder": "B10", "values": [{"measurement": "Dissociation (%) pH 5.8", "setting": "[1]", "value": 46.2, "unit": "%"}, {"measurement": "Dissociation (%) pH 7.4", "setting": "[2]", "value": 5.69, "unit": "%"}, {"measurement": "Fold dissociation pH 5.8/pH 7.4", "setting": "[3]", "value": 8.1, "unit": "fold"}]}
{"binder": "B11", "values": [{"measurement": "Dissociation (%) pH 5.8", "setting": "[1]", "value": 90.7, "unit": "%"}, {"measurement": "Dissociation (%) pH 7.4", "setting": "[2]", "value": 12.6, "unit": "%"}, {"measurement": "Fold dissociation pH 5.8/pH 7.4", "setting": "[3]", "value": 7.2, "unit": "fold"}]}
{"binder": "B12", "values": [{"measurement": "Dissociation (%) pH 5.8", "setting": "[1]", "value": 62.6, "unit": "%"}, {"measurement": "Dissociation (%) pH 7.4", "setting": "[2]", "value": 7.16, "unit": "%"}, {"measurement": "Fold dissociation pH 5.8/pH 7.4", "setting": "[3]", "value": 8.7, "unit": "fold"}]}
